T1: Sac3 residues 723–805 (Sac3^CID) (yeast, UniProt P46674 723-805)
T1 construct: Vector pGEXTEV; also called CID domain; not shown: GST, N-terminal, cleaved
T1 sequence (looked up): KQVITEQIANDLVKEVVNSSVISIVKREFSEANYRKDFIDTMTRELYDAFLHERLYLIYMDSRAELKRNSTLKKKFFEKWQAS

T2: Sus1 (of the in vitro binding studies of Figure S6) (yeast, UniProt Q6WNK7 1-96)
T2 construct: Sus1, yeast
T2 sequence (looked up): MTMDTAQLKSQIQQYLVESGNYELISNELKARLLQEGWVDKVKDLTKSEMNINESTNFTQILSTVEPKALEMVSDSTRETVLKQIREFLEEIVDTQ

T3: 6XHis-ENY2 (human, UniProt Q9NPA8 1-101)
T3 construct: ENY2, human homolog of Sus1; cDNA cloned into the NdeI and SalI sites of pET28a; also called human Sus1 homolog; DC6/ENY2; source: E. coli BL21, purified (Ni-NTA Agarose)
T3 sequence (looked up): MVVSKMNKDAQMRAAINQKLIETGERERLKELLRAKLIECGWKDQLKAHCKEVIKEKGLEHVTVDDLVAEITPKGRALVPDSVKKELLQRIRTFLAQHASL

B1: Cdc31 (recombinant, untagged, full length) (natural protein, yeast, UniProt P06704 1-161, looked up)
chain: MSKNRSSLQSGPLNSELLEEQKQEIYEAFSLFDMNNDGFLDYHELKVAMKALGFELPKREILDLIDEYDSEGRHLMKYDDFYIVMGEKILKRDPLDEIKRAFQLFDDDHTGKISIKNLRRVAKELGETLTDEELRAMIEEFDLDGDGEINENEFIAICTDS
notes: Cdc31, yeast, full length, cloned into pET30a and called untagged; the model holds residues 9–161; source: E. coli BL21(DE3) CodonPlus RIL, coexpressed with GST-Sac3 fragments, purified as a complex
B2: Sac3 residues 753–805 (domain or fragment, yeast, UniProt P46674 753-805, looked up)
chain: EANYRKDFIDTMTRELYDAFLHERLYLIYMDSRAELKRNSTLKKKFFEKWQAS
notes: Vector pGEXTEV; not shown: GST, N-terminal, cleaved
B3: Sac3 (construct of the in vitro binding studies of Figure S6) (domain or fragment)
chain: T1 sequence (looked up)
modifications: Supplement text on Sus1 affinity (Figure S6): plates coated with GST-Sac3(723-805) co-complexed with full-length Cdc31; GST and the Cdc31 partner chain (P06704) omitted here
B4: GST-Sac3(758–805) (domain or fragment, yeast, UniProt P46674 758-805, looked up)
chain: KDFIDTMTRELYDAFLHERLYLIYMDSRAELKRNSTLKKKFFEKWQAS
notes: Vector pGEXTEV; The methods say that GST-Sac3 fragments were coexpressed with Cdc31; source: E. coli, immobilised on glutathione Sepharose 4B resin from clarified lysate; not shown: GST, N-terminal, kept
B5: GST-Sac3(723–752) (domain or fragment, yeast, UniProt P46674 723-752, looked up)
chain: KQVITEQIANDLVKEVVNSSVISIVKREFS
notes: Vector pGEXTEV; source: E. coli, immobilised on glutathione Sepharose 4B resin from clarified lysate; not shown: GST, N-terminal, kept
B6: Sus1 (recombinant, untagged, full length) (natural protein, yeast, UniProt Q6WNK7 1-96, looked up)
chain: T2 sequence (looked up)
notes: Sus1, yeast, full length; the model holds residues 6–95; also called Sus1A; Sus1B; source: E. coli BL21(DE3) CodonPlus RIL, untagged vector pOPT, purified as a complex with Sac3 fragment and Cdc31
B7: GST-GANP(1162–1240) (domain or fragment, human, UniProt O60318 1162-1240, looked up)
chain: ELVLSELSQGLAVELMERVMMEFVRETCSQELKNAVETDQRVRVARCCEDVCAHLVDLFLVEEIFQTAKETLQELQCFC
notes: Vector pGEXTEV; not shown: GST, N-terminal, kept
B8: GST-GANP(1162–1204) (domain or fragment, human, UniProt O60318 1162-1204, looked up)
chain: ELVLSELSQGLAVELMERVMMEFVRETCSQELKNAVETDQRVR
notes: as for B7

Legend:
[1] = target: T1, Sac3 residues 723–805 (Sac3^CID); assay: crystal structure; Sac3 fragment:Cdc31:Sus1 complexes, hanging drop vapor diffusion in PEG solutions at 19°C; 2.5 Å (Sac3 753–805) and 2.7 Å (Sac3 723–805); conditions: both partners purified
[2] = target: B6; assay: as above; conditions: both partners purified
[3] = target: B1; assay: as above; conditions: both partners purified
[4] = target: T2, Sus1 (of the in vitro binding studies …); assay: not stated; in vitro binding studies (Figure S6)
[5] = target: T3, 6XHis-ENY2; assay: pull-down; GST or GST fusions immobilised on glutathione Sepharose 4B; purified ENY2 added in 10-fold excess, washed extensively with NB buffer (150 mM NaCl, 50 mM KOAc, 20 mM Tris, 2 mM Mg(OAc)2, 0.1% NP-40); SDS-PAGE (Figure S4); conditions: both partners purified

Binder: B1
stoichiometry N [1]: 1

Binder: B2
binding result [2]: binds
binding result [3]: binds

Binder: B3
Kd [4]: ~10 nM

Binder: B4
binding result [5]: binds

Binder: B5
binding result [5]: binds

Binder: B6
stoichiometry N [1]: 2

Binder: B7
binding result [5]: binds

Binder: B8
binding result [5]: binds

— publication PMC2726291, “Sus1, Cdc31, and the Sac3 CID Region Form a Conserved Interaction Platform that Promotes Nuclear Pore Association and mRNA Export” (Molecular Cell, 2009)
